Five molecules from paper PMC11519228, “Sugar alcohol degradation in Archaea: uptake and degradation of mannitol and sorbitol in Haloarcula hispanica” (Extremophiles, 2024) can be followed below.

The target of data set [1] is ketohexokinase (KHK) from Haloarcula marismortui (Haloarcula marismortui). Put plainly: SEC; native molecular mass on a size exclusion column (superdex HiLoad 16/600 200 pg) calibrated with proteins from the HMW and LMW kits; purified His-tagged enzyme. A general note: In gel filtration, larger molecules generally elute earlier.
Substrate in data set [2]: NC(=O)c1ccc[n+]([C@@H]2O[C@H](COP(=O)(O)OP(=O)(O)OC[C@H]3O[C@@H](n4cnc5c(N)ncnc54)[C@H](O)[C@@H]3O)[C@@H](O)[C@H]2O)c1
Put plainly: photometric NADH assay, Michaelis-Menten fit. The data set is classed as biochemical, Haloarcula hispanica. To be noted: 50 mM Tris-HCl, 1.5 M KCl, 37 °C, varied: cofactor.

Substrate in data set [3]: OC[C@@H](O)[C@@H](O)[C@H](O)[C@H](O)CO
The data set can be described thus: photometric NADH assay, Michaelis-Menten fit. Format: biochemical, Haloarcula hispanica. To be noted: 50 mM Tris-HCl, 1.5 M KCl, pH 7.5, 1 mM MnCl2, 1 mM NAD+, 37 °C.

Substrate in data set [4]: OC[C@@H](O)[C@@H](O)[C@H](O)[C@@H](O)CO
The data set can be described thus: photometric NADH assay, Michaelis-Menten fit. To be noted: 50 mM Tris-HCl, 1.5 M KCl, 37 °C. Format: biochemical, Haloarcula hispanica.

Data set [5] concerns the molecule itself. The data set can be described thus: SEC; native molecular mass on a size exclusion column (superdex HiLoad 16/600 200 pg) calibrated with proteins from the HMW and LMW kits; purified His-tagged enzyme.
Substrate in data set [6]: Nc1ncnc2c1ncn2[C@@H]1O[C@H](COP(=O)(O)OP(=O)(O)OP(=O)(O)O)[C@@H](O)[C@H]1O
Put plainly: coupled pyruvate kinase / lactate dehydrogenase photometric assay, Michaelis-Menten fit. Format: biochemical, Haloarcula hispanica. Conditions: 50 mM Tris-HCl, 1.5 M KCl, pH 7.5, 4 mM fructose-1-phosphate, 10 mM MgCl2, 37 °C.

Substrate in data set [7]: Nc1ncnc2c1ncn2[C@@H]1O[C@H](COP(=O)(O)OP(=O)(O)OP(=O)(O)O)[C@@H](O)[C@H]1O
The data set is described as above. Format: biochemical, Haloarcula marismortui. Conditions: 100 mM Tris-HCl, 1.5 M KCl, pH 7.5, 20 mM fructose, 10 mM MgCl2, 37 °C.

Usually stoichiometry N stands for a count of units in the complex or per binding partner. In general, Km refers to the concentration of substrate that gives half-maximal velocity.

For the molecule “ketohexokinase (KHK) from Haloarcula marismortui (enzyme)”, the stoichiometry N in data set [1] came to 2.

B1: MtlDH (Haloarcula hispanica ATCC 33960) (protein)
chain: MRASTLTDVGEITVEERDRPDPADDEVLVQVGACSVCMTDYHMYHGTFAAETPLVLGHEGAGTVAEVGADVEGFAVGDRVAINPTVPCNACSYCKKGETHLCENNTSIGGAGDTILDGAFAEYVRVPAINVEDIGEMSFERAALAEPLACCVHGVEQTDIKPGDSVGIIGAGPIGLLLLQAFRNAGAAPIVVSELDDERRELAADLGADAVVDPNEEDPEEAICAAAGGPVDVGAEAIGLVPTIKQANAVTASGGSTLIFGVPDQEATMEISPFDVFFDEVDYRGSFSLTTEDFERAITLLRHERIDAETLITERIGLDDLPTAFERMGNAEGLKKVVVPGDSE
notes: full-length gene from genomic DNA, N-terminal 6xHis tag, expressed in Haloferax volcanii H1209 (pTA963), Ni-NTA and size exclusion
For the molecule B1, the Km was determined as 420 ± 30 µM in data set [2] (pH 7.5, 1 mM MnCl2, 10 mM mannitol); 2600 ± 270 µM in data set [3]; 27600 ± 2660 µM in data set [4] (pH 7.5, 1 mM MnCl2, 1 mM NAD+, sorbitol up to 100 mM).

B2: fructose-1-phosphate kinase (1-PFK) from Haloarcula hispanica (enzyme, UniProt G0HX83 1-302, looked up)
chain: MIVTVTYNPAVDQTIQFDEQMAPDRVMRADEAQFDAGGKGINAAQFLTAMDRPCVATGLLGGFTGSFIRETLQDDGVETAFVDVDGTTRLNTTAIAAAGEYKLNQAGPTVGESVVDALLEQVRAQSPDRVLIGGSLPPGLSPNAIDRIAAGGDWETIVDTGGDVLRELDAQYGLCKPNRAELGDATGADVSTVEGCADAADAFRDRGFDRVLASLGADGAVLVGDTGRLYAEALDINVVDTVGAGDALLSGVLSAWEAGADDETALRTGVAVSSQVVQRAGTAVPDLNDIGSLRDGVTVRQL
notes: fructose-1-phosphate kinase of Haloarcula hispanica, gene fruK (HAH_1077), amplified from genomic DNA; subunits of 31.2 kDa; The gene was cloned into pTA963 with 6 x CAC fused to its 5' end (N-terminal 6 x His tag); also called F1P kinase; fruK; not shown: His6, N-terminal, kept
In the case of B2, in data set [5], the “stoichiometry N” value was 2. Also, the Km in data set [6] stood at 60 ± 4 µM.

B3: SorDH (Haloarcula hispanica ATCC 33960) (protein)
chain: MRTAVLVEPNEFELEDRPRPSPGPDDVLVAVRDVGICGSDVHYYEHGRIGDYVVEDPLVLGHESAGEVVEVGENVTHHEPGDRVALEPGVPCRRCAHCKRGDYHLCEEVTFMATPPHDGAFTEYVSWPADFAYTLPEAVSTAEGALCEPLSVGIHACRRGSVGTGDTVLITGAGPIGLMVLEAARAAGATDVILTDVVDEKLTFAEERGADLTVNVTETDLDAAVAEYTDGVGADVVVEASGAEPSIKSTIDVVRRGGTVVLVGLASEAEVPIDVLELIDNEVDVHGSFRYKNTYDAAVDLLADGEVDVEGIIDFESELEDIDDAFRRAMEPTVVKGMISLDS
notes: as for B1
For B3, the Km in data set [2] (pH 7.5, 1 mM MnCl2, 15 mM sorbitol) is 1200 ± 350 µM; in data set [4] (pH 7.5, 1 mM MnCl2, 2 mM NAD+), 14700 ± 7800 µM.

B4: KHK (Haloarcula marismortui ATCC 43049) (protein)
chain: MDEETRRAVATADEALPTSDALPDAIDTGRVVFGFDGYLDRVREVVADRIDPESHERLATLESFGDRIDRSVAADSSLSFEWLQQGSRTGGHTSHLARAFGGWSFDPVMVGMYGDPVHDAFETEFGEYELHSLGEPGVTDAVEFDDGKLMLTEIGDTMSLDWAELDTAFGHDRLAEKLDGASLLGTGYWSETPDLPTVFDGLRTLWDGIDDPPETVLVDPGDVRKLDADRLRAGREAIGRLDEVTDVVVTSNRAETGVLADAYAGDAERSFADDAEAVFEALEPTWFVGHGVEQSVVVTAAGTDSVAVPSVSDPELTTSSGDHFNAGLGLARIADLSPAAAVVVGNAVAGYFVRTADQPSLADVRAFVDEYLEKF
notes: full-length gene from genomic DNA, N-terminal 6xHis tag, expressed in Haloferax volcanii H1209 (pTA963)
For the molecule B4, the Km in data set [7] was found to be 1290 ± 120 µM.
